Experimental findings from US20240352144A1 (UNIVERSIT TSKLINIKUM HAMBURG EPPENDORF, published 2024) are described below.

By koff is commonly meant the rate constant with which the complex falls apart.

The target in experiment [1] is T1, human CD39 (gene ID 953) (human, UniProt P49961 5-510).
T1 construct: Cell-surface form: transiently or stably transfected HEK cells, PBMCs, AML cell lines; also called native CD39; human CD39 transfected HEK cells
T1 sequence: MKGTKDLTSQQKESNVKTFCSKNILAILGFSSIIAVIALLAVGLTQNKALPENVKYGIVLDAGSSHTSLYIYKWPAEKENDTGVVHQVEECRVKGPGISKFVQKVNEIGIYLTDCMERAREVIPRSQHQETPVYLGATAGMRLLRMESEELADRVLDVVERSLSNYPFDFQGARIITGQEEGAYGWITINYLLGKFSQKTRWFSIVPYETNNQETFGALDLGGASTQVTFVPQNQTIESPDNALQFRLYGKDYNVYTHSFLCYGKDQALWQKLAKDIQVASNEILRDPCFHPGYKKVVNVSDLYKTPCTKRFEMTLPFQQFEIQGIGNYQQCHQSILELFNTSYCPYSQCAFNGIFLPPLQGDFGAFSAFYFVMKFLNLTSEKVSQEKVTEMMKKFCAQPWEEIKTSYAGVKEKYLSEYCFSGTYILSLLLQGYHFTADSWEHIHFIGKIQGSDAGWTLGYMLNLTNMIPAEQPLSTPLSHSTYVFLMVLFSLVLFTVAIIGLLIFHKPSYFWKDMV
Description: flow cytometry binning on human CD39-expressing cells; competitor: Fam. 2 human IgG hcAb in excess.

In experiment [2] the target is T1, human CD39 (gene ID 953). Kind of experiment: flow cytometry binning on human CD39-expressing cells; competitor: human IgG hcAb SB24 (Fam. 1) in excess. (In general: In flow cytometry, cells or beads pass a laser one at a time.)
Experiment [3] concerns the target T1, human CD39 (gene ID 953). Kind of experiment: flow cytometry binning on human CD39-expressing cells; competitor: Fam. 3 human IgG hcAb (SB134) in excess.
The target of experiment [4] is T1, human CD39 (gene ID 953). Kind of experiment: flow cytometry binning on human CD39-expressing cells; competitor: Fam. 5 human IgG hcAb (SB136) in excess.
Experiment [5] addresses T2, mouse CD39 (gene ID 12495) (mouse, UniProt P55772 1-510).
T2 construct: whole, on cells; also called murine CD39; mouse CD39 transfected HEK cells
T2 sequence (looked up): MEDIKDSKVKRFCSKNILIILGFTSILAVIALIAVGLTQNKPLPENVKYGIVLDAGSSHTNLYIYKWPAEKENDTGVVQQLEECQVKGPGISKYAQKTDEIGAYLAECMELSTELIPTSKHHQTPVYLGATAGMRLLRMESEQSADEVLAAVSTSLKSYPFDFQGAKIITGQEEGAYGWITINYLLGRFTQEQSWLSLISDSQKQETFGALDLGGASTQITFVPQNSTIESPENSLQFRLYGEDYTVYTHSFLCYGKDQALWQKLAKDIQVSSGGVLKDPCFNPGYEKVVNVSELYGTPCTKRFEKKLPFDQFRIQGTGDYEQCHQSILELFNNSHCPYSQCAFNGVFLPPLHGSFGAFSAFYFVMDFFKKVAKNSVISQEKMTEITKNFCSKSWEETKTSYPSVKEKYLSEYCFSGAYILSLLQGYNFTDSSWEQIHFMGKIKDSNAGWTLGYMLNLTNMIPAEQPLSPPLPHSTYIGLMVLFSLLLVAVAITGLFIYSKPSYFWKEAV
Description: Table 1 specificity; sorted by binding to human (h) and/or mouse (m) CD39.

Experiment [6] addresses recombinant human CD39 ectodomain with C-terminal His6x tag (human) (UniProt P49961). Kind of experiment: BLI (Octet RED96), rabbit IgG hcAb on protein A biosensor, recombinant CD39 ectodomain as analyte at 200 ng/µl.
In experiment [7] the target is T2, mouse CD39 (gene ID 12495). Description: Table 1 specificity; binding to human (h) and/or mouse (m) CD39.
In experiment [8] the target is T1, human CD39 (gene ID 953). Described as above.
Experiment [9] addresses T1, human CD39 (gene ID 953). Kind of experiment: flow cytometry, rabbit IgG hcAb supernatant on transfected HEK cells.

Substitutions are numbered along the chain they refer to.

Turning to “monoclonal antibody against CD39, clone eBioA1”, the percent inhibition of binding turned out to be 8% in [1], 17% in [2], 5% in [3] and 75% in experiment [4].

B1: SB134 rabbit IgG hcAb (Fc fusion, not shown: a dimerising Fc or GST)
VHH: QVKLQESGGGWVQPGGSLRLSCAASGFTFRTHFMSWVRQAPGQGLEWVSGITSGGRTSYVDSVKGRFTISRDNAANTLYLQMNSLKPEDTAVYFCTKGDSGARGQGTQVTVSS
notes: also called l- 5a; family 3
For B1, in experiment [5], the binding result is on record as “no binding”. In addition, the koff in experiment [6] amounted to 0.012 s⁻¹. The “percent inhibition of binding” value in experiment [2] came out at 15%; in experiment [3] it was 58%; in experiment [4] it was 41%.

B2: SB39 rabbit IgG hcAb (Fc fusion, not shown: a dimerising Fc or GST)
VHH: QVQLVESGGGLVQPGGSLRLSCAASGFTLDYFAIGWFRQGPGKERDWVSCISKDGTTYYIDSVKGRFTISRDNAKNTGYLQMSGLKPDDTAVYYCARGAGGCQSDFGARGQGTQVTVSS
notes: also called l- 11; family 7
On to B2, for which the binding result in [7] is listed as “binds”. The “percent inhibition of binding” value in experiment [1] amounted to 98%; in experiment [2], 39%; in experiment [3], 96%; in [4], 91%.

B3: SB90 rabbit IgG hcAb (Fc fusion, not shown: a dimerising Fc or GST)
VHH: QVQLVESGGGLVQAGGSLRLSCAVSGLNNYAIGWLRQAPGKEREGVSCINCFDDFTYYADSVKGRFTVSCDNANHTVNLEMNSLRPEDTAVYYCAAGTCGSWWRYTPTPADGAWGRGTQVTVSS
notes: also called s+ 17; family 8
With B3, the binding result in [8] and in experiment [7] was “binds” throughout.

B4: SB135 rabbit IgG hcAb (Fc fusion, not shown: a dimerising Fc or GST)
VHH: QVKLQESGGGLVQAGGSLRLSCTASEESFNKYGVGWFRQAPGKERAFVVAIRPSGVITSYADSVKGRFTISRDSAKNTAYLQMNSLKPEDTALYYCAANSRNTNYYRPNGYDYWGRGTQVTVSS
notes: also called l- 15; family 4
Regarding B4, the binding result in experiment [5] is on record as “no binding”. Also, the “percent inhibition of binding” value in experiment [1] turned out to be 46%; in experiment [2], 9%; in [3] it was 53%; in experiment [4], 37%. Besides, the koff in experiment [6] worked out at 0.03 s⁻¹.

B5: SB27 rabbit IgG hcAb (Fc fusion, not shown: a dimerising Fc or GST)
VHH: QVQLVESGGGLVQPGGSLRLSCAASGSIFSFNAMGWYRQAPGKQRELVAAITSGGSTNYADSVKGRFTISRDNAKNTVYLQMNSLKPEDTAVYYCNGIGGSTWFGEDEYDYWGQGTQVTVSS
notes: also called family 1
Consider B5, for which, in experiment [9], the binding result is given as “binds”. The koff in experiment [6] came out at 0.0031 s⁻¹.

B6: SB131 rabbit IgG hcAb (Fc fusion, not shown: a dimerising Fc or GST)
VHH: B5 VHH with G26E, F29V, E46D, S56R, D61E, N73D, N96H, G97A, Y109P
notes: also called family 1
Consider B6, for which, in experiment [9], the binding result is “binds”. The koff in experiment [6] turned out to be 0.00084 s⁻¹.

B7: SB24 rabbit IgG hcAb (Fc fusion, not shown: a dimerising Fc or GST)
VHH: B5 VHH with S56N, T68A, N83S, N96K, Y109P
notes: Bivalent VHH-Fc heavy chain antibody; also called l- 14a; family 1
B7: in experiment [5], the binding result is given as “no binding”. Besides, the “percent inhibition of binding” value in experiment [1] worked out at 39%; in [2], 99%; in experiment [3], 40%; in [4] it was 53%. The dissociation rate constant (koff) in [6] is 0.00099 s⁻¹.

B8: SB130 rabbit IgG hcAb (Fc fusion, not shown: a dimerising Fc or GST)
VHH: B5 VHH with L11S, R19K, F29S, F31I, S56Y, G97A, Y111N
notes: also called family 1
As for B8, the binding result in [9] was “binds”. Besides, in experiment [6], the koff stood at 0.0015 s⁻¹.

B9: SB132 rabbit IgG hcAb (Fc fusion, not shown: a dimerising Fc or GST)
VHH: B5 VHH with S30N, P41S, D72G, N96H, D107E, Y111S
notes: also called family 1
Regarding B9, the binding result in experiment [9] was “binds”. In addition, in experiment [6], the koff is 0.0011 s⁻¹.

B10: SB137 rabbit IgG hcAb (Fc fusion, not shown: a dimerising Fc or GST)
VHH: QVKLQESGGGLGQAGGSLRLSCSASARTSATYVMGWFRQAPGKEREFVATISRSTSTTYYGDSVKGRFTISRDNAKNAVYLQMNSLKPEDTAVYYCATRAPRYGTASTRLSDYDNWGQGTQVTVSS
notes: also called s- 17; family 6
Consider B10, for which the binding result in experiment [5] is recorded as “no binding”. Besides, the “percent inhibition of binding” value in experiment [1] is 93%; in experiment [2], -11%; in experiment [3] it was 95%; in [4] it was 39%.

B11: SB112 rabbit IgG hcAb (Fc fusion, not shown: a dimerising Fc or GST)
VHH: QVQLQESGGGLVQAGGSLRLSCTASGRSFSSNAMGWFRQAPGKEREFVARINWSGSRTFYTDSVKGRFTISRDNAKNTMYLQMNSLKPEDTAVYYCAADPNYGSSITSGYTYWGQGTQVTVSS
notes: also called l- 14c; family 9
As for B11, the binding result in experiment [8] and in experiment [7] was “binds” throughout.

B12: SB32 rabbit IgG hcAb (Fc fusion, not shown: a dimerising Fc or GST)
VHH: QVQLVESGGGLVQAGGSLRLSCAVSKRTSTHYAMGWFRQAPGLVREFVGVINWNGGTTYYADSVKGRFFISRDNAKNTMALQMNNLKPEDTAVYYCALKVDGLGLTSNEYQHWGQGTQVTVSS
notes: also called l- 14d; family 10
Take B12: the binding result in experiment [8] and in [7] was “binds” each time.

B13: SB126 rabbit IgG hcAb (Fc fusion, not shown: a dimerising Fc or GST)
VHH: QVQLVESGGGLVQAGDSLRLSCAASGRIPVTTTTAWFRQAPGKEREFVAAIRWNSGDAAYADSAKGRFTISRDSAKNTLYLQMNNLEPEDTAVYYCAAKYSRYAPQSTDYDYWGQGTQVTVSS
notes: also called family 2
For the molecule B13, the binding result in [9] is recorded as “binds”. For the same molecule, in experiment [6], the koff stood at 0.048 s⁻¹.

B14: SB127 rabbit IgG hcAb (Fc fusion, not shown: a dimerising Fc or GST)
VHH: B13 VHH with R52T, D57N, A58T, A59N, E87K, A104N, P105L
notes: also called family 2
As to B14, the binding result in experiment [9] is given as “binds”. Also, in experiment [6], the koff stood at 0.028 s⁻¹.

B15: SB128 rabbit IgG hcAb (Fc fusion, not shown: a dimerising Fc or GST)
VHH: QVQLVESGGGLVQAGDSLRLSCAASGRTPITTTTGWFRQAPGKEREFVAAIRWDSGNTNYADSAKGRFTISRDSAKNLLYLQMTNLKPEDTAVYYCAAKYSRYLPQSTDYDYWGQGTQVTVSS
notes: also called l- 14b; family 2
B15: the binding result in experiment [5] is reported as “no binding”. The “percent inhibition of binding” value in [1] was found to be 86%; in experiment [2], 14%; in experiment [3] it was 88%; in [4] it was 42%. The koff in [6] was 0.011 s⁻¹.

B16: SB136 rabbit IgG hcAb (Fc fusion, not shown: a dimerising Fc or GST)
VHH: DVQLQASGGGLVQPGGSLRLSCAASGFRFSIYDMSWVRRPPGKGLEWVSSITSPGGTTYADSVKGRFTISRDNDKNTLYLQMNSLKPEDTAIYYCAKAYGGRSVVAQTARGQGTQVTVSS
notes: also called s- 12; family 5
On to B16, for which the binding result in experiment [5] was “no binding”. The “percent inhibition of binding” value in experiment [1] was 16%; in [2] it was -11%; in experiment [3], 0%; in experiment [4] it was 75%. Besides, in experiment [6], the koff came to 0.0012 s⁻¹.
